Results from patent US10947289B2, “Glyco-modified atrial natriuretic peptide” (priority 2013, dated 2021).

Legend:
[1] = Detection of test substance in rat plasma by LC-MS/MS (Test Example 3); format: in vivo; settings: rat plasma, 100 nmol/kg i.v., LC-MS/MS; time at which the test substance was finally detected
Summary of the method: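 Jugular blood drawn before and 15–240 min after dosing; plasma spiked with stable-isotope hANP internal standard and AcOH/water/DMSO solvent, then passed through a 50K filter with the 3K-retained fraction analysed by LC-MS/MS. Value is the last time point at which test substance was detected.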

human GC-A = target: T1, human GC-A (Homo sapiens, UniProt P16066); test: cGMP elevating activity in CHO/human GC-A cells (Test Example 1); format: cell-based
T1 construct: expressed in transfected cells; host or cells: CHO cells
T1 sequence (P16066 33-1061): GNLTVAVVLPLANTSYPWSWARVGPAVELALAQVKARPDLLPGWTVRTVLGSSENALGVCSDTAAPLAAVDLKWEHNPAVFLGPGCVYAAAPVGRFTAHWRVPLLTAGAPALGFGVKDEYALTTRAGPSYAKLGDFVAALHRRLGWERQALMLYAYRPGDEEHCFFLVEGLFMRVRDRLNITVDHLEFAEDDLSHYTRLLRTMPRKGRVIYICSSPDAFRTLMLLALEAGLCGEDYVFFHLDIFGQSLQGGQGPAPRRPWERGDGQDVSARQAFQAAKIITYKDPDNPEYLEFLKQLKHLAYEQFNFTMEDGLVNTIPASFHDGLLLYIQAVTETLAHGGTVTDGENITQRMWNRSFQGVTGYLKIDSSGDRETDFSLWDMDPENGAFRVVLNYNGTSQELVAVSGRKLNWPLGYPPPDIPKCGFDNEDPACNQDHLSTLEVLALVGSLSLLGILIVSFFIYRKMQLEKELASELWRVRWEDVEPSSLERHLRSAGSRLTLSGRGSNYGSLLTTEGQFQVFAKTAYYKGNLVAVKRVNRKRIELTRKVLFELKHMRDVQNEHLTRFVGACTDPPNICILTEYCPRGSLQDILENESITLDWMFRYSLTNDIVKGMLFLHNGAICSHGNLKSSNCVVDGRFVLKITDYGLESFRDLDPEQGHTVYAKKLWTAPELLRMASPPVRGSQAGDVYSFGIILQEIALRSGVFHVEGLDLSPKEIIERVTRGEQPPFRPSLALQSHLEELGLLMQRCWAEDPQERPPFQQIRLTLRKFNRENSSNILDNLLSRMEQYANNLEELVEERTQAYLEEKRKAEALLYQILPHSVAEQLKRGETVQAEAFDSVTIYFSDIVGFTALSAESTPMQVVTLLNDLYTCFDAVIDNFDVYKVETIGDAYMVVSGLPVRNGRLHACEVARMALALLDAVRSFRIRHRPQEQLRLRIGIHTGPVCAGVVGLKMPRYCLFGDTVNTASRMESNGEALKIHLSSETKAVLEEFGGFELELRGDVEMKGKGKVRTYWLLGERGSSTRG
Summary of the method: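 CHO cells stably expressing human GC-A, pre-incubated 10 min at room temperature in 1.6 mM IBMX/KRB, then exposed to test peptide 15 min in CO2 incubator. Lysate cGMP measured by HTRF. Activity (T/C) scaled so solvent-only = 0 and 1 nM ANP = 1.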

| SMILES | Maximum time of detection after administration [1] [h] | EC50 (human GC-A) [nM] |
| --- | --- | --- |
| CC[C@H](C)[C@@H]1NC(=O)[C@H](CCCNC(=N)N)NC(=O)[C@H](CC(=O)O)NC(=O)[C@H](CCSC)NC(=O)[C@H](CCCNC(=N)N)NC(=O)CNC(=O)CNC(=O)[C@H](Cc2ccccc2)NC(=O)[C@@H](NC(=O)[C@H](CO)NC(=O)[C@H](CO)NC(=O)[C@H](CCCNC(=N)N)NC(=O)[C@H](CCCNC(=N)N)NC(=O)[C@H](CC(C)C)NC(=O)[C@H](CO)NC(=O)[C@@H](N)CC(=O)N[C@@H]2O[C@H](CO)[C@@H](O[C@@H]3O[C@H](CO)[C@@H](O[C@@H]4O[C@H](CO[C@H]5O[C@H](CO)[C@@H](O)[C@H](O)[C@@H]5O[C@@H]5O[C@H](CO)[C@@H](O[C@@H]6O[C@H](CO[C@]7(C(=O)O)C[C@H](O)[C@@H](NC(C)=O)[C@H]([C@H](O)[C@H](O)CO)O7)[C@H](O)[C@H](O)[C@H]6O)[C@H](O)[C@H]5NC(C)=O)[C@@H](O)[C@H](O[C@H]5O[C@H](CO)[C@@H](O)[C@H](O)[C@@H]5O[C@@H]5O[C@H](CO)[C@@H](O[C@@H]6O[C@H](CO[C@]7(C(=O)O)C[C@H](O)[C@@H](NC(C)=O)[C@H]([C@H](O)[C@H](O)CO)O7)[C@H](O)[C@H](O)[C@H]6O)[C@H](O)[C@H]5NC(C)=O)[C@@H]4O)[C@H](O)[C@H]3NC(C)=O)[C@H](O)[C@H]2NC(C)=O)CSSC[C@@H](C(=O)N[C@@H](CC(N)=O)C(=O)N[C@@H](CO)C(=O)N[C@@H](Cc2ccccc2)C(=O)N[C@@H](CCCNC(=N)N)C(=O)N[C@@H](Cc2ccc(O)cc2)C(=O)O)NC(=O)CNC(=O)[C@H](CC(C)C)NC(=O)CNC(=O)[C@H](CO)NC(=O)[C@H](CCC(N)=O)NC(=O)[C@H](C)NC(=O)CNC1=O [Compound 2-3, (SG-)Asn-hANP(1-28)] | 2 | 0.12 |
| CC[C@H](C)[C@@H]1NC(=O)[C@H](CCCNC(=N)N)NC(=O)[C@H](CC(=O)O)NC(=O)[C@H](CCSC)NC(=O)[C@H](CCCNC(=N)N)NC(=O)CNC(=O)CNC(=O)[C@H](Cc2ccccc2)NC(=O)[C@@H](NC(=O)[C@H](CO)NC(=O)[C@H](CO)NC(=O)[C@H](CCCNC(=N)N)NC(=O)[C@H](CCCNC(=N)N)NC(=O)[C@H](CC(C)C)NC(=O)[C@H](CO)NC(=O)[C@H](CC(=O)N[C@@H]2O[C@H](CO)[C@@H](O[C@@H]3O[C@H](CO)[C@@H](O[C@@H]4O[C@H](CO[C@H]5O[C@H](CO)[C@@H](O)[C@H](O)[C@@H]5O[C@@H]5O[C@H](CO)[C@@H](O[C@@H]6O[C@H](CO[C@]7(C(=O)O)C[C@H](O)[C@@H](NC(C)=O)[C@H]([C@H](O)[C@H](O)CO)O7)[C@H](O)[C@H](O)[C@H]6O)[C@H](O)[C@H]5NC(C)=O)[C@@H](O)[C@H](O[C@H]5O[C@H](CO)[C@@H](O)[C@H](O)[C@@H]5O[C@@H]5O[C@H](CO)[C@@H](O[C@@H]6O[C@H](CO[C@]7(C(=O)O)C[C@H](O)[C@@H](NC(C)=O)[C@H]([C@H](O)[C@H](O)CO)O7)[C@H](O)[C@H](O)[C@H]6O)[C@H](O)[C@H]5NC(C)=O)[C@@H]4O)[C@H](O)[C@H]3NC(C)=O)[C@H](O)[C@H]2NC(C)=O)NC(=O)CCOCCOCCOCCOCCNC(=O)CO[C@@H]2O[C@H](CO)[C@@H](O[C@@H]3O[C@H](CO)[C@@H](O[C@@H]4O[C@H](CO[C@H]5O[C@H](CO)[C@@H](O)[C@H](O)[C@@H]5O[C@@H]5O[C@H](CO)[C@@H](O[C@@H]6O[C@H](CO[C@]7(C(=O)O)C[C@H](O)[C@@H](NC(C)=O)[C@H]([C@H](O)[C@H](O)CO)O7)[C@H](O)[C@H](O)[C@H]6O)[C@H](O)[C@H]5NC(C)=O)[C@@H](O)[C@H](O[C@H]5O[C@H](CO)[C@@H](O)[C@H](O)[C@@H]5O[C@@H]5O[C@H](CO)[C@@H](O[C@@H]6O[C@H](CO[C@]7(C(=O)O)C[C@H](O)[C@@H](NC(C)=O)[C@H]([C@H](O)[C@H](O)CO)O7)[C@H](O)[C@H](O)[C@H]6O)[C@H](O)[C@H]5NC(C)=O)[C@@H]4O)[C@H](O)[C@H]3NC(C)=O)[C@H](O)[C@H]2NC(C)=O)CSSC[C@@H](C(=O)N[C@@H](CC(N)=O)C(=O)N[C@@H](CO)C(=O)N[C@@H](Cc2ccccc2)C(=O)N[C@@H](CCCNC(=N)N)C(=O)N[C@@H](Cc2ccc(O)cc2)C(=O)O)NC(=O)CNC(=O)[C@H](CC(C)C)NC(=O)CNC(=O)[C@H](CO)NC(=O)[C@H](CCC(N)=O)NC(=O)[C@H](C)NC(=O)CNC1=O [Compound 2-16, SG-PEG(3)-(SG-)Asn-hANP(1-28)] | 2 | 0.98 |
| CC[C@H](C)[C@@H]1NC(=O)[C@H](CCCNC(=N)N)NC(=O)[C@H](CC(=O)O)NC(=O)[C@H](CCSC)NC(=O)[C@H](CCCNC(=N)N)NC(=O)CNC(=O)CNC(=O)[C@H](Cc2ccccc2)NC(=O)[C@@H](NC(=O)[C@H](CO)NC(=O)[C@H](CO)NC(=O)[C@H](CCCNC(=N)N)NC(=O)[C@H](CCCNC(=N)N)NC(=O)[C@H](CC(C)C)NC(=O)[C@H](CO)NC(=O)CNC(=O)[C@H](CSC2CC(=O)N(CCC(=O)NCCO[C@@H]3O[C@H](CO)[C@@H](O[C@@H]4O[C@H](CO)[C@@H](O[C@@H]5O[C@H](CO[C@H]6O[C@H](CO)[C@@H](O)[C@H](O)[C@@H]6O[C@@H]6O[C@H](CO)[C@@H](O[C@@H]7O[C@H](CO[C@]8(C(=O)O)C[C@H](O)[C@@H](NC(C)=O)[C@H]([C@H](O)[C@H](O)CO)O8)[C@H](O)[C@H](O)[C@H]7O)[C@H](O)[C@H]6NC(C)=O)[C@@H](O)[C@H](O[C@H]6O[C@H](CO)[C@@H](O)[C@H](O)[C@@H]6O[C@@H]6O[C@H](CO)[C@@H](O[C@@H]7O[C@H](CO[C@]8(C(=O)O)C[C@H](O)[C@@H](NC(C)=O)[C@H]([C@H](O)[C@H](O)CO)O8)[C@H](O)[C@H](O)[C@H]7O)[C@H](O)[C@H]6NC(C)=O)[C@@H]5O)[C@H](O)[C@H]4NC(C)=O)[C@H](O)[C@H]3NC(C)=O)C2=O)NC(=O)CNC(=O)[C@H](CSC2CC(=O)N(CCC(=O)NCCO[C@@H]3O[C@H](CO)[C@@H](O[C@@H]4O[C@H](CO)[C@@H](O[C@@H]5O[C@H](CO[C@H]6O[C@H](CO)[C@@H](O)[C@H](O)[C@@H]6O[C@@H]6O[C@H](CO)[C@@H](O[C@@H]7O[C@H](CO[C@]8(C(=O)O)C[C@H](O)[C@@H](NC(C)=O)[C@H]([C@H](O)[C@H](O)CO)O8)[C@H](O)[C@H](O)[C@H]7O)[C@H](O)[C@H]6NC(C)=O)[C@@H](O)[C@H](O[C@H]6O[C@H](CO)[C@@H](O)[C@H](O)[C@@H]6O[C@@H]6O[C@H](CO)[C@@H](O[C@@H]7O[C@H](CO[C@]8(C(=O)O)C[C@H](O)[C@@H](NC(C)=O)[C@H]([C@H](O)[C@H](O)CO)O8)[C@H](O)[C@H](O)[C@H]7O)[C@H](O)[C@H]6NC(C)=O)[C@@H]5O)[C@H](O)[C@H]4NC(C)=O)[C@H](O)[C@H]3NC(C)=O)C2=O)NC(=O)CNC(=O)[C@H](CSC2CC(=O)N(CCC(=O)NCCO[C@@H]3O[C@H](CO)[C@@H](O[C@@H]4O[C@H](CO)[C@@H](O[C@@H]5O[C@H](CO[C@H]6O[C@H](CO)[C@@H](O)[C@H](O)[C@@H]6O[C@@H]6O[C@H](CO)[C@@H](O[C@@H]7O[C@H](CO[C@]8(C(=O)O)C[C@H](O)[C@@H](NC(C)=O)[C@H]([C@H](O)[C@H](O)CO)O8)[C@H](O)[C@H](O)[C@H]7O)[C@H](O)[C@H]6NC(C)=O)[C@@H](O)[C@H](O[C@H]6O[C@H](CO)[C@@H](O)[C@H](O)[C@@H]6O[C@@H]6O[C@H](CO)[C@@H](O[C@@H]7O[C@H](CO[C@]8(C(=O)O)C[C@H](O)[C@@H](NC(C)=O)[C@H]([C@H](O)[C@H](O)CO)O8)[C@H](O)[C@H](O)[C@H]7O)[C@H](O)[C@H]6NC(C)=O)[C@@H]5O)[C@H](O)[C@H]4NC(C)=O)[C@H](O)[C@H]3NC(C)=O)C2=O)NC(C)=O)CSSC[C@@H](C(=O)N[C@@H](CC(N)=O)C(=O)N[C@@H](CO)C(=O)N[C@@H](Cc2ccccc2)C(=O)N[C@@H](CCCNC(=N)N)C(=O)N[C@@H](Cc2ccc(O)cc2)C(=O)O)NC(=O)CNC(=O)[C@H](CC(C)C)NC(=O)CNC(=O)[C@H](CO)NC(=O)[C@H](CCC(N)=O)NC(=O)[C@H](C)NC(=O)CNC1=O (stereo partly drawn) [Compound 2-15, [(SG-)Cys-Gly]3-hANP(1-28)] | 1.5 | 3.1 |
